Assay results: patent US20060105444A1, “O-fucosyltransferase” (Genentech, Inc., priority 1997, published 2006)

Molecular target: T1, purified O-fucosyltransferase (Cricetulus griseus, UniProt P83337)
T1 construct: endogenous in cells; host or cells: CHO cell paste (enzyme); E. coli periplasm (EGF substrates)
Test: Acceptor substrate specificity: fucosyltransferase assay with Factor IX EGF domain mutants
Format: biochemical, CHO cells (Chinese hamster ovary)
Settings: for Fucose (cpm): human Factor IX EGF domain or mutant as acceptor substrate, 14C-fucose incorporated; for acceptor substrate for the O-fucosyltransferase (in words): recombinant Factor IX EGF domains, assay counts and LC/MS of fucosylation product
Protocol: A reaction volume of 50 μl contained the following ingredient: 0.1 M imidazole-HCl, pH 7.0; 50 mM MnCl2; 0.1 mM GDP-^14C-Fucose (4000-8000 cpm/nmol), 20 μM recombinant human Factor VII EGF-1 domain and about 0.01-0.1 milliunit of enzyme activity. The mixture was incubated at 37° C. for 10-20 minutes. The reaction was stopped by placing the mixture on ice, then diluting with 950 μl of 0.25 M EDTA, pH 8.0. Separation of incorporated fucose from GDP-fucose, fucose-phosphate and free fucose was carried out by passing the solution through a C18 cartridge (Alltech, Extract Clean, C18, 200 mg). The cartridge was washed with 5 ml of H2O, and the product was then eluted with 3 ml of 80% acetonitrile containing 0.052% TFA. The eluant was mixed with 10 ml Aquasol II (NEN/Du Pont) and counted using a liquid scintillation counter.
As described previously, all the O-fucosylation on EGF domains occur within the putative consensus sequence CXXGGSC (SEQ ID NO: 1) or alternatively CXXGGTC (SEQ ID NO: 21). […] Three mutants were constructed using alanine to replace either of the two or both glycine residues and tested as acceptor substrate for the purified O-fucosyltransferase. Assays using the four recombinant EGF domains all gave positive counts. It appeared that the two glycine residues were not absolutely required for activity.
In order to determine if all the different forms of the mutants served as substrate for the O-fucosyltransferase, reverse-phase HPLC online with electrospray mass spectrometry was used to analyze the product of the fucosylation reaction. Shown in FIG. 8 is the experiment using the mutant ala-ala. Analysis of the other tested mutants gave similar results. […] The enzyme O-fucosyltransferase required its substrate in order to have the proper three dimensional structure in order to function properly.

## EGF (wild type): Recombinant human Factor IX EGF domain, wild type, sequence -CLNGGSC- (SEQ ID NO: 20) (KRYNSGKLEEFVQGNLERECMEEKCSFEEAREVFENTERTTEFHHHHHHGSA)
  Fucose (cpm): 12062 cpm
  acceptor substrate for the O-fucosyltransferase (in words): better substrate than the mutants

## EGF.AA: Recombinant human Factor IX EGF domain mutant, sequence -CLNAASC- (SEQ ID NO: 17), both glycines replaced by alanine
  Fucose (cpm): 1818 cpm
  acceptor substrate for the O-fucosyltransferase (in words): only one of the four differently folded species served as an acceptor substrate

## EGF.AG: Recombinant human Factor IX EGF domain mutant, sequence -CLNAGSC- (SEQ ID NO: 18) (KRYNSGKLEEFVQGNLERECMEEKCSFEEAREVFENTERTTEFHHHHHHGSA)
  Fucose (cpm): 4585 cpm
